Laboratory results from paper PMC10667097 (2023).

Target: GST RBX1–CUL1–NEDD8 (human, UniProt Q13616 1-776; P62877 5-108; Q15843 1-76, NEDD8 linked to a specific site in the WHB subdomain | C-terminus linked to the cullin (isopeptide))
Assay: BLI

Chain of GST RBX1–CUL1–NEDD8 (Q13616 whole entry, chain 1 of 3): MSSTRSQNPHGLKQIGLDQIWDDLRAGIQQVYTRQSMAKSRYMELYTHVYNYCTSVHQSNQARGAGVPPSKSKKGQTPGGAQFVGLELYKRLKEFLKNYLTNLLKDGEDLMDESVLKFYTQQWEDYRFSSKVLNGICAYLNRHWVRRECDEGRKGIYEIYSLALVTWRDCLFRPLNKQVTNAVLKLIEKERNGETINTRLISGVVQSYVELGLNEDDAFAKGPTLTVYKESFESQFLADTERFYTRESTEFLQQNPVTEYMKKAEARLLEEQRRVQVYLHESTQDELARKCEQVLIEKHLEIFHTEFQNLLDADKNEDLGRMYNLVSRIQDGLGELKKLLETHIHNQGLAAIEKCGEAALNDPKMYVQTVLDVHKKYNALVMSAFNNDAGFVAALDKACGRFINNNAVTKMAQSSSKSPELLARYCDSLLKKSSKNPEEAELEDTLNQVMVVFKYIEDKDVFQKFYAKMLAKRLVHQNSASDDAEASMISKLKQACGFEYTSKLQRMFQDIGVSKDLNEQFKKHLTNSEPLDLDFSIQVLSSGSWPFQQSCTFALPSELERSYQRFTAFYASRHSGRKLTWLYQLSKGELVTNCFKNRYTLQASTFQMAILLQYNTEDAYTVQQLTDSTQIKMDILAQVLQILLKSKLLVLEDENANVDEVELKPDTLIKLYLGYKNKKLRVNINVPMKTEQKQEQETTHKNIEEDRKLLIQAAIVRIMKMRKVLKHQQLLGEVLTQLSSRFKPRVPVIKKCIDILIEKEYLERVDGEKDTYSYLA
Chain of GST RBX1–CUL1–NEDD8 (P62877 5-108, chain 2 of 3): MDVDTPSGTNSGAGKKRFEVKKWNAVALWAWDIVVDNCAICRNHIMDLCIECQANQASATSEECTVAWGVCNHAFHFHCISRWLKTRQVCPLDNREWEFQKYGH
Chain of GST RBX1–CUL1–NEDD8 (Q15843 1-76, chain 3 of 3): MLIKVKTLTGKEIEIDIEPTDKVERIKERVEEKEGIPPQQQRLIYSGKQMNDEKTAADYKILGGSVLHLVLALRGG

Kd: 1.27 nM
B1: N8C_Fab3b (Fab, V domains shown)
VH: EVQLVESGGGLVQPGGSLRLSCAASGFNFSSSSIHWVRQAPGKGLEWVASISSSYGYTYYADSVKGRFTISADTSKNTAYLQMNSLRAEDTAVYYCARDPFGWAAHGVGLDYWGQGTLVTVSS
VL: DIQMTQSPSSLSASVGDRVTITCRASQSVSSAVAWYQQKPGKAPKLLIYSASSLYSGVPSRFSGSRSGTDFTLTISSLQPEDFATYYCQQSSYSLITFGQGTKVEIK
